US20250270298A1

Tests used:
[1] = target: C. jejuni flagella (Campylobacter jejuni); test: ELISA dose response, purified VHH on immobilized Cj flagella, rabbit anti-VHH detection
[2] = target: C. jejuni flagella (Campylobacter jejuni); test: apparent affinity estimated from ELISA dose response on immobilized Cj flagella
[3] = target: CmeC (Campylobacter jejuni); test: ELISA on directly coated CmeC (200 ng/well), serial dilution of purified VHH, anti-FLAG + anti-mouse-HRP, OPD, absorption at 490 nm
[4] = target: CfrA (Campylobacter jejuni); test: ELISA on directly coated CfrA (200 ng/well), serial dilution of purified VHH, anti-FLAG + anti-mouse-HRP, OPD, absorption at 490 nm
[5] = target: CjaD (Campylobacter jejuni); test: apparent affinity from ELISA dose response, purified VHH on immobilized CjaD, anti-FLAG detection
[6] = target: CadF (Campylobacter jejuni); test: ELISA on directly coated CadF (200 ng/well), serial dilution of purified VHH, rabbit anti-VHH + anti-rabbit-HRP, OPD, absorption at 490 nm
[7] = target: CjaD (Campylobacter jejuni); test: ELISA on directly coated CjaD (200 ng/well), serial dilution of purified VHH, anti-FLAG + anti-mouse-HRP, OPD, absorption at 490 nm

B1: Flagella-ECF-1B6 (VHH)
VHH: EVQLVESGGGLVQSGGSLRLSCAASGRIFSITNMGWYRQAPGEQRELVADMPSGGSTNYADSVKGRFTISRDIAKNTVYLQMNSLKPEDTAVYYCNLKMSQPGWLVTNHNFWGQGTQVTVSS
In the case of B1, the Relative Bmax [1] is reported as 2.5 and the Kd [2] is reported as 5 nM.

B2: Flagella-ECF-1F4 (VHH)
VHH: EVQLVESGGGLVQPGGSLRLSCEAAGSILRVNSMGWYRQAPGKQRDLVSIITSNNDAKYSDSVRGRFTISRDNAKNTVYLQMSSLKPDDTAVYYCNAYVETAGWIPTTHNLWGQGTQVTVSS
B2 was tested, and the Relative Bmax [1] was 2.5 and the Kd [2] was 0.6 nM.

B3: CmeC-ECM-1D6 (VHH)
VHH: EVQLVESGGGLVQAGGSLRLSCAASGGTFSRYMMGWFRQAPGKEREFVASIARSGGTYFADSVKGRLTATRDDAKNTMHLQMNSLKPEDTAVYYCAAGAGGSYPALLDFEYLVWGQGTQVTVSS
In the case of B3, the EC50 (read off the curve) [3] is reported as 0.7 nM.

B4: Flagella-ECF-1D9 (VHH)
VHH: EVQLVESGGGLVEPGGSLRLSCATSGFAFDNYCMYWVRQAPGKGLEWISGITNSGSFSYYADSVKGRFTISRDNAKNTLFLEMNSLTVDDTAVYYCAIHGHGCTWDSLRTTSGPRYRGQGTQVTVSS
B4 showed a Relative Bmax [1] of 3 and a Kd [2] of 9 nM.

B5: CfrA-ECA-1G7 (VHH, not shown: small tags and cut ends)
VHH: EVQLVESGGGLVQPGGSLRLSCTASGSSLDYYAIGWFRQAPGKEREGVSCISSRDGRIYWADSVEGRFTISRDNGKNTVYLQMNSLKPEDTAVYYCATSRWSFCPSDWSPVPSPFGSWGQGTQVTVSS
B5 gave an EC50 (read off the curve) [4] of 9 nM.

B6: Flagella-ECF-1C4 (VHH)
VHH: EVQLVESGGGLVQAGGSLRVSCAASGRAVHNYALNWFRQAPGKAREFVSAISWTRRTYYANSVRGRFTISRDNNGNMVHLQMSNLKSEDTALYYCAAATTWPRLDGAEYWGQGTQVTVSS
Binder B6 has a Relative Bmax [1] of 3 and a Kd [2] of 4 nM.

B7: Flagella-ECF-1G8 (VHH)
VHH: EVQLVESGGGLVEAGGSLTLSCTTSEPTSLLNLMGWWRQGPGKEREFVASSNWSGKLVDYADGVEGRFTVIRNEDENAISLQMNSLTVEDTAIYYCAASRLGLPRSAQANQYWGQGTQVTVSS
For B7, the Relative Bmax [1] was 2.5 and the Kd [2] was 7 nM.

B8: CjaD-ECD-1D3 (VHH, not shown: small tags and cut ends)
VHH: EVQLVESGGGLVQTGGSLRLSCATSGFTFEYSAIAWFRQAPGKGREGVSCISNRDGTTVYADSVKGRFTISSDNAKNTVYLQMNSLTPEDTGVYYCAADAGVYTADYCRDSRYDPVSKDAWGKGTLVTVSS
For B8, the Kd [5] was 0.06 nM.

B9: CadF-ECF-1D10 (VHH, not shown: small tags and cut ends)
VHH: EVQLVESGGGLVQPGGSLRLSCAASGFTLDDYAVGWFRQAPGKEREWLSGISSRDGSTVYADSVKGRFTISRDNAKNTYYLQMNSLKPEDTAVYYCAAAVGYILTRVKSHYNDWSQGTQVTVSS
B9 showed an EC50 (read off the curve) [6] of 0.7 nM.

B10: CadF-ECF-1F10 (VHH, not shown: small tags and cut ends)
VHH: EVQLVESGGGSVQAGGSLRLSCTASIRAGNRYAMGWFRQAPGKEREFVAGISWSGGNTYHADSVNGRFTISRDNAKNTLYLTMNSLKSEDTAVYYCAASWKPLTFRGDDYTYWGQGTQVTVSS
B10 showed an EC50 (read off the curve) [6] of 0.4 nM.

B11: CjaD-ECD-1A7 (VHH, not shown: small tags and cut ends)
VHH: EVQLVESGGGLVQAGGSLRLSCATSGFTPGDYAIGWFRQAPGKAREGVSCLSTRDGTTYYADSVKGRFTISTDNAQNTVYLQMNSLKPEDTAVYYCAGEQISFRAVYYCTEYEPVYWSQGTQVTVSS
B11 showed an EC50 (read off the curve) [7] of 2 nM.

B12: CmeC-ECM-1G7 (VHH)
VHH: EVQLVESGGDLVQDGGSLRLSCAASGGDFRNPVTGWYRQAPGKQRELVGLITSDGRTNYGDSVMGRFTISMDTAKNTMYLQMNSLKPEDSAVYYCAASLLYGGLQFSTNIWGQGTQVTVSS
B12 showed an EC50 (read off the curve) [3] of 0.3 nM.

B13: CmeC-ECM-1C11 (VHH)
VHH: EVQLVESGGGLVQPGGSLRLSCAASGFTFSDQPMGWYRQAPGQGREWIAFISSGSGGTTDYKNSVKGRFTISRDNAKNIVYLQMNSLKPDDTARYYCNFRIDNNYWGQGTQVTVSS
In the case of B13, the EC50 (read off the curve) [3] is reported as 0.4 nM.
